The text below walks through data of patent publication US20190016828A1.

The target in assay [1] is human neonatal Fc-receptor (FcRn) (human) (UniProt P55899). The assay is described as follows: FcRn affinity chromatography, bispecific KiH antibody.
Assay [2] has the same target. Put plainly: FcRn affinity chromatography.

human neonatal Fc-receptor (FcRn) (human), sequence (P55899 24-297 limits assumed, chain 1 of 2): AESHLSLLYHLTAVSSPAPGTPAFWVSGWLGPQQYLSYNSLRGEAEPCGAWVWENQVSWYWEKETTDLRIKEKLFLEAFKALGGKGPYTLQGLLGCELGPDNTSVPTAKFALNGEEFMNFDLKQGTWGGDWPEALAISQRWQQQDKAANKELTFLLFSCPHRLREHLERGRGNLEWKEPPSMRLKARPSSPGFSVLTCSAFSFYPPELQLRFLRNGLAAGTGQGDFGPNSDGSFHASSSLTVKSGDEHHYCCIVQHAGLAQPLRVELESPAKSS
human neonatal Fc-receptor (FcRn) (human), sequence (P61769 21-119 limits assumed, chain 2 of 2, further chain): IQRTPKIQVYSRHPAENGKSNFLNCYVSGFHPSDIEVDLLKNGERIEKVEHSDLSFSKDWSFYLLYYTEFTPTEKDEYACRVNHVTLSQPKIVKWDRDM

As to “bispecific antibody (knobs-into-holes), one chain with I253A”, the retention time on FcRn affinity column in assay [1] was 48.8 min.
Regarding “bispecific antibody (knobs-into-holes), one chain with H310A/H433A/Y436A”, the retention time on FcRn affinity column in assay [1] was 46.7 min.
In assay [2], “bispecific antibody (knobs-into-holes), first chain with I253A/H310A/H435A and second chain with H310A” registered an RT (Min) on FcRn affinity column of 0 min.
Still for that read-out and setting: as for “bispecific antibody (knobs-into-holes), first chain with I253A/H310A/H435A and second chain with H435A”, the figure is 0 min.
In assay [1], “bispecific antibody (knobs-into-holes), one chain with M252Y/S254T/T256E” yielded a retention time on FcRn affinity column of 56.2 min.
The substance “bispecific antibody (knobs-into-holes), first chain with I253A/H310A/H435A and second chain with I253A/H310A/H435A” gave an RT (Min) on FcRn affinity column in assay [2] of 0 min.
Take “bispecific antibody (knobs-into-holes), one chain with H435A”: the retention time on FcRn affinity column in assay [1] was found to be 48.8 min.
In assay [1], “bispecific antibody (knobs-into-holes), one chain with L251D/L314D/L432D” had a retention time on FcRn affinity column of 46.3 min.
On to “IgG1 Fc-region molecule with L234A/L235A/P329G and symmetric Y436A”, for which the FcRn-affinity column retention time in assay [2] turned out to be 41.3 min.
In the case of “bispecific antibody (knobs-into-holes), one chain with H310A”, the retention time on FcRn affinity column in assay [1] turned out to be 48.4 min.
